According to US20200397816A1, “METHODS TO TREAT INFLAMMATORY AND SMOOTH MUSCLE CELL PROLIFERATION DISORDERS” (THE TRUSTEES OF INDIANA UNIVERSITY, priority 2019, published 2020):
“Also recorded” adds a separate entry of the source.

What was measured:
[1] = system: S1P; test: S1P, sphingosine and ceramides by HPLC/MS/MS in RAW 264.7 macrophages; assay type: cell-based, mouse; details: EMAP II 0-24 hours
Method: (§1) RAW 264.7 (ATCC) mouse macrophages and Human Embryonic Kidney (HEK) 293T cells were cultured in DMEM media with 10% fetal bovine serum […] and glutamine HEPES buffer and beta-mercaptoethanol were added to the growth medium used for RAW 264.7 macrophages. Primary human pulmonary artery smooth muscle cells (hPASMC) purchased from Lonza (Walkersville, Md.) were cultured in complete growth medium containing smooth muscle growth media-2 (SmGM-2) with 10% FBS and growth factors provided as a kit by the supplier (Lonza, (Walkersville, Md.). THP-1 human monocyte cells were cultured in RPMI 1640 with 10% FBS and glutamine Cells were cultured in a humidified atmosphere with 5% CO2 at 370 C. For all studies passages 5-14 were used for RAW 264.7 and passages 5-10 were used for hPASMCs. For treatment studies, subconfluent cells plated in multi-well plates were serum starved and if required, pretreated for with inhibitors before stimulating with 2 μg/mL recombinant EMAP II.
Collected cells were rinsed with PBS, pelleted and frozen at minus 80° Celsius. […] Sphingolipids are normalized to inorganic phosphate levels determined from the Bligh & Dyer lipid extraction method. […]
Collected cells were rinsed with PBS, pelleted. […] Sphingolipids were normalized to inorganic phosphate levels in PASMC which was determined from the Bligh & Dyer lipid extraction method. […]

[2] = system: pSphK1 (Ser225); test: pSphK1 (Ser225) immunoblotting and immunofluorescence in hPASMC; assay type: cell-based, human; details: SMCs
Method: RAW 264.7 (ATCC) mouse macrophages and Human Embryonic Kidney (HEK) 293T cells were cultured in DMEM media with 10% fetal bovine serum […] and glutamine HEPES buffer and beta-mercaptoethanol were added to the growth medium used for RAW 264.7 macrophages. […]
After appropriate treatments, protein lysates were prepared by using RIPA buffer supplemented with phosphatase and protease inhibitors (Thermo Fischer Scientific). […] Western blots were performed according to standard methods and quantified using densitometry using Image Studio Lite software from LI-COR Biosciences. […]
After appropriate treatments, protein lysates were prepared by using RIPA buffer supplemented with phosphatase and protease inhibitors (Thermo Fisher Scientific). […] Western blots were performed according to standard methods and quantified using densitometry using Image Studio Lite software from LI-COR Biosciences. […]

[3] = system: EGR1; test: EGR1 protein western blot and immunofluorescence in hPASMC; assay type: cell-based, human; details: SMCs
Method: as §1
After appropriate treatments, protein lysates were prepared by using RIPA buffer supplemented with phosphatase and protease inhibitors (Thermo Fischer Scientific). Alpha-tubulin was used as a loading control. For nuclear and cytoplasmic fractionation, NE-PER kit from Thermo Fischer Scientific was used. Western blots were performed according to standard methods and quantified using densitometry using Image Studio Lite software from LI-COR Biosciences.
Primary hPASMCs cells or human THP-1 macrophages were seeded in Nunc Lab-Tek™ II 4-well imaging plates (Thermo Fisher Scientific) chamber well slides and cultured in growth medium. After the serum starvation cells were stimulated with EMAP II. Treated cells were rinsed with PBS and fixed with 4% paraformaldehyde at room temperature for 15 min and permeabilized with 0.1% Triton X-100 at room temperature for 10 min After washing with PBS three times, the cells were incubated with EGR1, 1amin, or pSphK1 antibody at 40C overnight. The cells were then rinsed with PBS three times and subsequently incubated with respective secondary antibody conjugated with Alex Fluor 647 and 488 or Phalloidin 488 at room temperature for 1 h. The cells were rinsed with PBS three times and coverslips were mounted with SlowFade Gold Antifade Mountant with DAPI (Thermo Fischer Scientific) and the cells were examined under Olympus microscope with 40× for EGR1 expression and with 60× for pSphK1 water immersion.
Knockdown of endogenous EGR1 was carried out by transfecting with 25 nM final concentration of ON-TARGETplus siRNAs specific for EGR1 or non-targeting control purchased from GE Dharmacon (Lafayette,CO) using Viromer Blue (Lipocalyx) per manufacturer's instructions. Cells were stimulated with EMAP II 48 h post-transfection.
RAW 264.7 (ATCC) mouse macrophages and HEK-293T (ATCC) cells were cultured in DMEM media with 10% (v/v) fetal bovine serum (FBS) and 2 mM glutamine HEPES buffer and beta-mercaptoethanol were added to the growth medium used for RAW 264.7 macrophages. […]

[4] = system: hPASMC; test: WST-1 cell proliferation assay in hPASMC; assay type: cell-based, human; details: SMCs; EMAP II 2 μg/mL 48 hours
Method: (§2) Cell proliferation of hPASMCs was assessed using WST-1 cell proliferation reagent (Roche Diagnostic Corporation, IN) in a 96-well plate. Human PASMCs were seeded at 4200 cells/well density in 100 μl complete medium and serum starved for overnight. Cells were stimulated for 48 hours with 2 μg/mL EMAP II following the pretreatment with inhibitors. WST-1 reagent (10 μL) was added into each well and incubated for 90 minutes in a humidified atmosphere with 5% CO2 at 370 C. Absorbance was measured at 450 nm using microplate reader. Blank control well was with medium and WST-1 reagent without cultured cells. All samples were in duplicates. Cell proliferation was determined by subtracting the background reading from average of duplicate of each sample.
as §2, with “37°” for “370”, “Blank control well was with medium and WST-1 reagent without cultured cells. All samples were in duplicates.” left out

B1: EMAP II: 6x-His tagged recombinant EMAP II, cleaved C-terminal peptide of AIMP1 (SEQ ID NO: 2), pro-inflammatory cytokine (protein)
chain: IAGSADSKPIDVSRLDLRIGCIITARKHPDADSLYVEEVDVGEIAPRTVVSGLVNHVPLEQMQNRMVILLCNLKPAKMRGVLSQAMVMCASSPEKIEILAPPNGSVPGDRITFDAFPGEPDKELNPKKKIWEQIQPDLHTNDECVATYKGVPFEVKGKGVCRAQTMSNSGIK
- cellular sphingosine and ceramide levels [1]: bi-modal depreciation; also recorded: decreasing levels over time
- cellular S1P levels ([1]; normalized against inorganic phosphates): continuous elevation
- pSphK1 localization to the plasma membrane ([2]; immunostaining pSphK1 and actin, 15 minutes, 1 hour, 6 hours EMAP II): stimulated translocation; also recorded: trafficked to the plasma membrane; also recorded: increased pSPHK1 signal
- SphK1 phosphorylation (pSphK1/Tubulin) ([2]; peaks at 1 and 6 hours of EMAP II): bi-modal SphK1 phosphorylation; also recorded: bimodal SPHK1 phosphorylation
- EGR1 expression in whole cell lysates ([3]; 1 to 2 hours following EMAP II): significant upregulation
- upregulation of nuclear EGR1 expression ([3]; EMAP II 2 μg/mL, at 1 hour): 2.5 fold
- nuclear EGR1 expression by immunofluorescence vs control ([3]; EMAP II 1 hour): significantly elevated
- cell proliferation (WST1) [4]: promotes cell proliferation
